In PMC3072847 (Biochemistry, 2011):

Target: T1, CusB (E. coli, UniProt P77239 29-407)
T1 sequence (looked up): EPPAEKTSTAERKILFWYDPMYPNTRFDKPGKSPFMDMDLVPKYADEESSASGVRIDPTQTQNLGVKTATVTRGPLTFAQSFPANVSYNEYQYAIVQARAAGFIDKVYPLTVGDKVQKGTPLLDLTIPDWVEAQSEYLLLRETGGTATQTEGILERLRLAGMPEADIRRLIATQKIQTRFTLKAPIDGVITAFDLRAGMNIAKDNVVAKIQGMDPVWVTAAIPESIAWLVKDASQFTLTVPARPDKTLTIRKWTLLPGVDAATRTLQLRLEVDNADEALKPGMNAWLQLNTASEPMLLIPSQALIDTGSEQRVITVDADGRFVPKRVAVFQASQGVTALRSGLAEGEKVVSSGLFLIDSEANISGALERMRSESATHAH
Test: NMR 15N relaxation

Kd: ~160 µM
B1: CusF (natural protein, E. coli, UniProt P77214 22-110, looked up)
chain: ANEHHHETMSEAQPQVISATGVVKGIDLESKKITIHHDPIAAVNWPEMTMRFTITPQTKMSEIKTGDKVAFNFVQQGNLSLLQDIKVSQ
